Broadly, the stoichiometry N is a count of units in the complex or per binding partner.

The assay addresses T1, Human full-length TOP2B (topoisomerase II beta) (human), Q02880.
T1 chain: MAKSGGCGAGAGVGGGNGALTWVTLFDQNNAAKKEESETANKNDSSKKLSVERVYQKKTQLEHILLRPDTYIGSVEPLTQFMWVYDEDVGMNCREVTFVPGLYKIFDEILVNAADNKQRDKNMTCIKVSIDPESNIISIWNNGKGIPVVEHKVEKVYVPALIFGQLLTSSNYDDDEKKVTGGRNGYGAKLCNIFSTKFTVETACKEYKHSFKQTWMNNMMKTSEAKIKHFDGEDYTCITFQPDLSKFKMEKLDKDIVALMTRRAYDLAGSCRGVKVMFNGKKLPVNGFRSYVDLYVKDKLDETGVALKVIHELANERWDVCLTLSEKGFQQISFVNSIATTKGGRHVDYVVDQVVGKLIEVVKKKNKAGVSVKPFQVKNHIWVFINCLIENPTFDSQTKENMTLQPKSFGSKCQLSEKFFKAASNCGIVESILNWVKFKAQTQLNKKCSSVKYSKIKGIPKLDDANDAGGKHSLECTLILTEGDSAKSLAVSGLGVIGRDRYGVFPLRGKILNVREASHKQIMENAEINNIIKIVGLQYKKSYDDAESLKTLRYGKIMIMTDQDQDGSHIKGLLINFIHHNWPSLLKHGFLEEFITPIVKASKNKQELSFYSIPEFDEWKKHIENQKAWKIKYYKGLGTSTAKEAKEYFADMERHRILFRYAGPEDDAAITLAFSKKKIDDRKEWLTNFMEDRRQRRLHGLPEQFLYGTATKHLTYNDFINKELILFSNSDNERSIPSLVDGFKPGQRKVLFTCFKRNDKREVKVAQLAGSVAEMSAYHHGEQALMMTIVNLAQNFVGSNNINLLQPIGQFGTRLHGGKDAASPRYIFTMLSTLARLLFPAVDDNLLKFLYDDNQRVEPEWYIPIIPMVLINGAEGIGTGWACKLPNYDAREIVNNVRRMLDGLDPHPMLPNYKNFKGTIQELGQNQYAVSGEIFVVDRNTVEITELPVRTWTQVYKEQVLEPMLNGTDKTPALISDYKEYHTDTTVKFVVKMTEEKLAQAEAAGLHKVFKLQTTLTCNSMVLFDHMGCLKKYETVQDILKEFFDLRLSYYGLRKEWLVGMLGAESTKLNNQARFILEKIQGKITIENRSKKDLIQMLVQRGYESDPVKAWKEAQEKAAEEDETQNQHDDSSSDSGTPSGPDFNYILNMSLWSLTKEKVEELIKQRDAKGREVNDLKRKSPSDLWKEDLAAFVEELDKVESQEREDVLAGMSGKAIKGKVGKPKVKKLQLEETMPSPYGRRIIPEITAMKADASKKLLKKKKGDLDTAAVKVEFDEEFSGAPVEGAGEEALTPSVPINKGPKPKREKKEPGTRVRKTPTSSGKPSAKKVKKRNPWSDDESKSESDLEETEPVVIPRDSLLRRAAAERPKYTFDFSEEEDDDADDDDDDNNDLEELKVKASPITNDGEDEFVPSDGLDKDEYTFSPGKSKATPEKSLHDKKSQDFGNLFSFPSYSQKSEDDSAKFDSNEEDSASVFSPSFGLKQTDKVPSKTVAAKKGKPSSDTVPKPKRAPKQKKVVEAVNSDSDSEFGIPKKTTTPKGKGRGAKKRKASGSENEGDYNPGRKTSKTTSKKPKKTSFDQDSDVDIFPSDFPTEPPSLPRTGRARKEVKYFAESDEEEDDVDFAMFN
Put plainly: cryo-EM structure; 8.3 uM TOP2B, 16.7 uM EGR1 TSS dsDNA (50 bp, -30 to +20) and 1.67 uM etoposide in 20 mM HEPES pH 8.0, 5 mM KCl, 5 mM MgCl2, 0.5 mM ATP; C2 symmetry imposed in 3D refinement (also reconstructed without it). Conditions: remark: other sources report otherwise.

B1: Human full-length TOP2B (topoisomerase II beta), Q02880 1-1626 (enzyme)
chain: T1 chain
Turning to B1, the stoichiometry N amounted to 2.
